Experimental data as given in article PMC4866751, “Bacillus licheniformis Contains Two More PerR-Like Proteins in Addition to PerR, Fur, and Zur Orthologues” (PLoS ONE, 2016).
Each block holds one molecule with its values, some of them ahead of it.

What was measured:
[1] = molecular target: FurBL (BL05249) (Bacillus licheniformis ATCC14580); test: SEC; Superdex 200 HiLoad 16/60 gel filtration, Chelex-100-treated buffer A (20 mM Tris-HCl, pH 8.0, 0.1 M NaCl, 5% glycerol); oligomeric state judged by elution profile in the last purification step
[2] = molecular target: PerRBL (BL00075) (Bacillus licheniformis ATCC14580); test: as above
[3] = molecular target: ZurBL (BL03703) (Bacillus licheniformis ATCC14580); test: as above
[4] = tested on: PerR2 (BL00690) (Bacillus licheniformis ATCC 14580); test: EMSA; details: EMSA: 20 mM Tris-HCl pH 8.0, 50 mM KCl, 5% glycerol, 50 ug/ml BSA, 100 uM MnCl2; 6% PAGE in 45 mM Tris-borate with 100 uM MnCl2; temperature not stated
[5] = molecular target: the molecule itself; test: SEC; Superdex 200 HiLoad 16/60 gel filtration, Chelex-100-treated buffer A (20 mM Tris-HCl, pH 8.0, 0.1 M NaCl, 5% glycerol); oligomeric state judged by elution profile in the last purification step

stoichiometry N [1]: 2
Molecule: FurBL (BL05249) (natural protein)

stoichiometry N [2]: 2
Molecule: PerRBL (BL00075) (natural protein)

stoichiometry N [3]: 2
Molecule: ZurBL (BL03703) (natural protein)

Molecule: mrgA promoter fragment with PerR box (273 bp)
Kd [4]: 70 nM

B1: PerR2 (BL00690) (natural protein, Bacillus licheniformis ATCC14580, UniProt Q62UQ7 1-154, looked up)
chain: MENETNVKQEAMAQLKRKGIRMTPQRLAIYHYFLANRNHPTIAEIQQSLREIYPAVSTATIYNTIRYFKQEGLIKEMGFTDPLRFDLALEEHDHVICEVCGKIVDFHCPQLEKVKDIAARLTGFKVTHHRLELYGICNDCQAKRKYAAKEKGVR
notes: PerR-like protein BL00690 of Bacillus licheniformis ATCC14580; ORF cloned into the NcoI and BamHI sites of pET-16b (pJL202); Contains structural Zn2+ (~0.8 per monomer); source: E. coli BL21 (DE3) pLysS, purified (heparin-Sepharose, SP-Sepharose, Superdex 200)
stoichiometry N [5]: 2
